Source: the supplement of paper PMC10567573

B1: KLHDC10 (parent)
chain: CPIIRIPNRFLRGHRPPPARSGHR
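Note: lentivirally expressed fusions sorted by FACS into six bins by GFP to DsRed ratio, PSI derived from sequencing read proportions per bin multiplied by bin number.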

Variants of: B1
Test: protein stability index of a GFP-peptide fusion (GPS, HEK-293T) (PSI 1-6); higher = more stable
Details: c terminus: a fixed tail appended
CPIIRIPNRFLRGHRCPPARSGHR [P16C] gave a protein stability index of 2.5. With CPIIRIPNRFLRGHRHPPARSGHR [P16H] the protein stability index was 1.92. For CPIIRIPNRFLRGHRFPPARSGHR [P16F], the protein stability index was 1.9. CPIIRIPNRFLRGHRMPPARSGHR [P16M] gave a protein stability index of 2.33. In the case of CPIIRIPNRFLRGHRGPPARSGHR [P16G], the protein stability index is reported as 1.42. In the case of CPIIRIPNRFLRGHRSPPARSGHR [P16S], the protein stability index is reported as 2.12. In the case of CPIIRIPNRFLRGHRYPPARSGHR [P16Y], the protein stability index is reported as 1.31. CPIIRIPNRFLRGHRLPPARSGHR [P16L] showed a protein stability index of 1.85. CPIIRIPNRFLRGHRIPPARSGHR [P16I] gave a protein stability index of 1.73. In the case of CPIIRIPNRFLRGHRVPPARSGHR [P16V], the protein stability index is reported as 1.23. With CPIIRIPNRFLRGHRNPPARSGHR [P16N] the protein stability index was 2.56. In the case of CPIIRIPNRFLRGHRKPPARSGHR [P16K], the protein stability index is reported as 3.27. Variant CPIIRIPNRFLRGHREPPARSGHR [P16E] has a protein stability index of 1.92. Variant CPIIRIPNRFLRGHRTPPARSGHR [P16T] has a protein stability index of 2.38. Variant CPIIRIPNRFLRGHRQPPARSGHR [P16Q] has a protein stability index of 2.1. CPIIRIPNRFLRGHRDPPARSGHR [P16D] gave a protein stability index of 1.72. In the case of CPIIRIPNRFLRGHRRPPARSGHR [P16R], the protein stability index is reported as 1.2. For CPIIRIPNRFLRGHRPPPARSGQR [H23Q], the protein stability index was 2.06. Variant CPIIRIPNRFLRGHRPPPARSGSR [H23S] has a protein stability index of 1.02. For CPIIRIPNRFLRGHRPPPARSGLR [H23L], the protein stability index was 1.12. Variant CPIIRIPNRFLRGHRPPPARSGKR [H23K] has a protein stability index of 1.5. Work on CPIIRIPNRFLRGHRPPPARSGER [H23E] yielded a protein stability index of 1.66. For CPIIRIPNRFLRGHRPPPARSGGR [H23G], the protein stability index was 2.02. For CPIIRIPNRFLRGHRPPPARSGRR [H23R], the protein stability index was 1.67. Work on CPIIRIPNRFLRGHRPPPARSGDR [H23D] yielded a protein stability index of 1.38. In the case of CPIIRIPNRFLRGHRPPPARSGIR [H23I], the protein stability index is reported as 1.82. For CPIIRIPNRFLRGHRPPPARSGFR [H23F], the protein stability index was 1.52. In the case of CPIIRIPNRFLRGHRPPPARSGPR [H23P], the protein stability index is reported as 1.67. With CPIIRIPNRFLRGHRPPPARSGAR [H23A] the protein stability index was 1.85. With CPIIRIPNRFLRGHRPPPARSGMR [H23M] the protein stability index was 1.49. With CPIIRIPNRFLRGHRPPPARSGNR [H23N] the protein stability index was 2.43. Variant CPIIRIPNRFLRGFRPPPARSGHR [H14F] has a protein stability index of 1.83. With CPIIRIPNRFLRGPRPPPARSGHR [H14P] the protein stability index was 2.15. Variant CPIIRIPNRFLRGSRPPPARSGHR [H14S] has a protein stability index of 2.07. CPIIRIPNRFLRGARPPPARSGHR [H14A] gave a protein stability index of 1.96. CPIIRIPNRFLRGNRPPPARSGHR [H14N] gave a protein stability index of 1.89. CPIIRIPNRFLRGTRPPPARSGHR [H14T] gave a protein stability index of 1.74. In the case of CPIIRIPNRFLRGERPPPARSGHR [H14E], the protein stability index is reported as 2.22. Work on CPIIRIPNRFLRGYRPPPARSGHR [H14Y] yielded a protein stability index of 1.33. Work on CPIIRIPNRFLRGKRPPPARSGHR [H14K] yielded a protein stability index of 2.57. For CPIIRIPNRFLRGVRPPPARSGHR [H14V], the protein stability index was 2.46. For CPIIRIPNRFLRGMRPPPARSGHR [H14M], the protein stability index was 1.87. CPIIRIPNRFLRGDRPPPARSGHR [H14D] showed a protein stability index of 1.69. Work on CPIIRIPNRFLRGIRPPPARSGHR [H14I] yielded a protein stability index of 1.87. In the case of CPIIRIPNRFLRGLRPPPARSGHR [H14L], the protein stability index is reported as 1.32. In the case of CPIIRIPNRFLRGCRPPPARSGHR [H14C], the protein stability index is reported as 1.48. In the case of CPIIRIPNRFLRGWRPPPARSGHR [H14W], the protein stability index is reported as 2.89. CPIIRIPNRFLRGRRPPPARSGHR [H14R] gave a protein stability index of 1.76. CPIIRIPNRFLRGGRPPPARSGHR [H14G] gave a protein stability index of 1.46. Work on CPIIRIPNRFLRGHRPPPALSGHR [R20L] yielded a protein stability index of 2.45. With CPIIRIPNRFLRGHRPPPAMSGHR [R20M] the protein stability index was 2.13. Work on CPIIRIPNRFLRGHRPPPACSGHR [R20C] yielded a protein stability index of 1.48. CPIIRIPNRFLRGHRPPPAWSGHR [R20W] gave a protein stability index of 1.75. Variant CPIIRIPNRFLRGHRPPPAISGHR [R20I] has a protein stability index of 1.38. With CPIIRIPNRFLRGHRPPPAASGHR [R20A] the protein stability index was 2.48. CPIIRIPNRFLRGHRPPPAQSGHR [R20Q] gave a protein stability index of 1.93. With CPIIRIPNRFLRGHRPPPAGSGHR [R20G] the protein stability index was 1.95. With CPIIRIPNRFLRGHRPPPATSGHR [R20T] the protein stability index was 2.51. With CPIIRIPNRFLRGHRPPPAPSGHR [R20P] the protein stability index was 2.16. CPIIRIPNRFLRGHRPPPAVSGHR [R20V] gave a protein stability index of 2.62. In the case of CPIIRIPNRFLRGHRPPPADSGHR [R20D], the protein stability index is reported as 2.73. With CPIIRIPNRFLRGHRPPPAFSGHR [R20F] the protein stability index was 2.81. CPIIRIPNRFLRGHRPLPARSGHR [P17L] gave a protein stability index of 2.28. In the case of CPIIRIPNRFLRGHRPYPARSGHR [P17Y], the protein stability index is reported as 2.55. With CPIIRIPNRFLRGHRPVPARSGHR [P17V] the protein stability index was 3.32. In the case of CPIIRIPNRFLRGHRPKPARSGHR [P17K], the protein stability index is reported as 2.98. With CPIIRIPNRFLRGHRPAPARSGHR [P17A] the protein stability index was 2.28. Variant CPIIRIPNRFLRGHRPMPARSGHR [P17M] has a protein stability index of 1.8. CPIIRIPNRFLRGHRPIPARSGHR [P17I] gave a protein stability index of 1.93. Work on CPIIRIPNRFLRGHRPGPARSGHR [P17G] yielded a protein stability index of 2.09. With CPIIRIPNRFLRGHRPCPARSGHR [P17C] the protein stability index was 1.21. CPIIRIPNRFLRGHRPQPARSGHR [P17Q] showed a protein stability index of 1.57. With CPIIRIPNRFLRGHRPHPARSGHR [P17H] the protein stability index was 1.76. For CPIIRIPNRFLRGHRPWPARSGHR [P17W], the protein stability index was 1.97. With CPIIRIPNRFLRGHRPSPARSGHR [P17S] the protein stability index was 2.27. Variant CPIIRIPNRFLRGHRPEPARSGHR [P17E] has a protein stability index of 1.93. Work on CPIIRIPNRFLRGHRPFPARSGHR [P17F] yielded a protein stability index of 1.81. For CPIIRIPNRFLRGHRPNPARSGHR [P17N], the protein stability index was 2.2. Work on CPIIRIPNRFLRGHRPRPARSGHR [P17R] yielded a protein stability index of 2.34. Variant CPIIRIPNRFLRGHRPTPARSGHR [P17T] has a protein stability index of 1.64. CPIIRIPNRFLRGHRPDPARSGHR [P17D] showed a protein stability index of 1.63. CPIIRIPNRFLRGHRPPPHRSGHR [A19H] gave a protein stability index of 3.04. In the case of CPIIRIPNRFLRGHRPPPQRSGHR [A19Q], the protein stability index is reported as 1.48. In the case of CPIIRIPNRFLRGHRPPPSRSGHR [A19S], the protein stability index is reported as 1.8. In the case of CPIIRIPNRFLRGHRPPPMRSGHR [A19M], the protein stability index is reported as 2.12. With CPIIRIPNRFLRGHRPPPDRSGHR [A19D] the protein stability index was 2.95. For CPIIRIPNRFLRGHRPPPKRSGHR [A19K], the protein stability index was 1.61. Variant CPIIRIPNRFLRGHRPPPRRSGHR [A19R] has a protein stability index of 2.02. CPIIRIPNRFLRGHRPPPFRSGHR [A19F] showed a protein stability index of 1.69. Work on CPIIRIPNRFLRGHRPPPGRSGHR [A19G] yielded a protein stability index of 1.82. For CPIIRIPNRFLRGHRPPPLRSGHR [A19L], the protein stability index was 1.46. In the case of CPIIRIPNRFLRGHRPPPNRSGHR [A19N], the protein stability index is reported as 2.23. CPIIRIPNRFLRGHRPPPIRSGHR [A19I] showed a protein stability index of 1.4. In the case of CPIIRIPNRFLRGHRPPPVRSGHR [A19V], the protein stability index is reported as 1.48.
